In article PMC5225433:

Target: EMILIN1 gC1q domain, wild type (recombinant)
Assay: SDS-PAGE without boiling; purified gC1q (WT or mutant), incubated or not with NE at 37 °C, Laemmli buffer added, loaded on 4-20% gels without boiling to keep the trimer, Coomassie staining; trimer to monomers

## EMILIN1 gC1q domain, wild type (recombinant) (domain or fragment)
  stoichiometry N: 3
